We go through 2 molecules from patent US20030044858A1 (Genentech, published 2003).

Experiment [1] addresses T1, membrane IgE on U266 B1 cells (human, UniProt P01854 1-546).
T1 construct: whole, on cells; also called Membrane IgE on U266BL; mIgE
The experiment is described as follows: FACS on U266 B1 cells (membrane IgE+). How it is done:
c. […] Cells are added to 400 μl FACS buffer containing propidium iodide at 2 μg/ml to stain dead cells.

Experiment [2] addresses FCEH-bound IgE (human IgE held on FcεRI) (human, UniProt P01854 1-546; P12319 26-257). The experiment is described as follows: cell-based or functional assay.
The target in experiment [3] is T2, human IgE (U266 IgE) (human, UniProt P01854 1-546).
T2 construct: mature; Purified from U266B1 cells or recombinant from 293 cells; the Scatchard assay used iodinated IgE of ND and PS allotypes; P01854 covers the constant region only; also called huIgE; U266 IgE standard
The experiment is described as follows: ratio of 50% inhibition concentrations. How it is done:
(§1) A 96-well assay plate (Manufn Nunc.) was coated with 0.05 ml of the FcεRI alpha chain IgG1 chimeric receptor in 1 μg/ml coating buffer ([…] carbonate/bicarbonate, pH 9.6). Assay was done for 12 hours at 4-8° C. The wells were aspirated and 250 μl blocking buffer (PBS—1% BSA pH 7.2) was added and incubated for one hour at 4° C. […] The FcεRI-coated wells were washed three times with PBS-0.05% Tween20, and then 50 μl from the sample wells were transferred and incubated with agitation for 30 minutes at 25° C. 50 μl/well of streptavidin-HRP diluted 1:5000 in assay buffer was incubated for 15 minutes with agitation and then the plate was washed as before. 50 μl/well of Microwell peroxidase substrate (Kirkgaard & Parry Laboratories) was added and color was developed for 30 minutes. The reaction was stopped by adding an equal volume of 1 normal HCl and the adsorbance measured at 450 nm.

Experiment [4] addresses T2, human IgE (U266 IgE). The experiment is described as follows: 50% inhibition of IgE binding to FCEH (assay taken as that of Table 9). On the procedure:
as §1

T2 sequence (P01854 whole entry): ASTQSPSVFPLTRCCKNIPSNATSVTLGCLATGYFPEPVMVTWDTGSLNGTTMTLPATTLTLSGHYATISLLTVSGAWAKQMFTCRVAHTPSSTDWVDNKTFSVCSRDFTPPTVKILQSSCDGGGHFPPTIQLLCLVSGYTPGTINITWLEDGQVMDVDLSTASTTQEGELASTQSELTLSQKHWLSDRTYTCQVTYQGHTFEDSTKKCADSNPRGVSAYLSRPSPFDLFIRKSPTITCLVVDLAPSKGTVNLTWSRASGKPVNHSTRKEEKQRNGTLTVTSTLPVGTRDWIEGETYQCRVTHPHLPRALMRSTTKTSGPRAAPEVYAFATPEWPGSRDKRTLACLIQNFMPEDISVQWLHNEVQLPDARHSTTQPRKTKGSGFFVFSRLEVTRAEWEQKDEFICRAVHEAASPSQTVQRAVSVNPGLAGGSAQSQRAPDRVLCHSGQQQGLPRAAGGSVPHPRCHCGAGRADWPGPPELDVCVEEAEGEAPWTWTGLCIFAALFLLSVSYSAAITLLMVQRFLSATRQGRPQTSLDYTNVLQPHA
Sequence of FCEH-bound IgE (human IgE held on FcεRI) (P01854 whole entry, chain 1 of 2): as the sequence (P01854 whole entry) above
Sequence of FCEH-bound IgE (human IgE held on FcεRI) (P12319 26-257, chain 2 of 2): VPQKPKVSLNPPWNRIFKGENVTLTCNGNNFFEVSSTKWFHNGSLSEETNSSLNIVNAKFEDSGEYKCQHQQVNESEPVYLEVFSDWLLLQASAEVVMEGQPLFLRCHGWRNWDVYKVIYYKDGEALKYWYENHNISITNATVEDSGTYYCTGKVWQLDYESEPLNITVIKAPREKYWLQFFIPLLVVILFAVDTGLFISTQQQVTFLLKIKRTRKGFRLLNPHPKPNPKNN
T1 sequence (P01854 whole entry): as the sequence (P01854 whole entry) above

B1: MaE 11 murine anti-human IgE monoclonal antibody (antibody)
heavy: DVQLQESGPGLVKPSQSLSLACSVTGYSITSGYSWNWIRQFPGNKLEWMGSITYDGSSNYNPSLKNRISVTRDTSQNQFFLKLNSATAEDTATYYCARGSHYFGHWHFAVWGAGTTVTVSSAKTTPPSVYPLAR
light: DIVLTQSPASLAVSLGQRATISCKASQSVDYDGDSYMNWYQQKPGQPPILLIYAASYLGSEIPARFSGSGSGTDFTLNIHPVEEEDAATFYCQQSHEDPYTFGAGTKLEIK
notes: murine IgG1; they may hold only the variable regions
One may read the EC50 as the midpoint of the concentration-response curve. Lower therefore signals higher potency in that assay. By IC50 is commonly meant the concentration needed to halve the response being measured. A low value points to inhibition by little substance. Turning to B1, the midpoint of the response in experiment [1], the EC50, lay at 0.15 µg/mL. Besides, the “PBL Histamine Release (EC50)” value in experiment [2] is over 100 µg/mL. Further, in the experiment with human IgE (U266 IgE) [3], the “Var. X / IgL1H1” value was 0.06 ratio and the “Var. X / MaE11” value stood at 1 ratio. This molecule also yielded an IC50 with human IgE (U266 IgE) [4] of 0.449 µg/mL.

B2: MaE 13 murine anti-human IgE monoclonal antibody (antibody)
heavy: DVQLQESGPGLVKPSQSLSLTCTVTGYTITSDNAWNWIRQFPGNKLEWMGYINHSGTTSYNPSLKSRISITRDTSKNQFFLQLNSVTTEDTATYYCAWVVAYAMDYWGQGTSVTVSSAKTTPPSVYPLAR
light: DIVMTQSQKFMSTSVGDRVSVTCKASQNVSSNVAWYQQKPGQSPKALIYSASYRYSGVPDRFTGSGSGTDFTLTISNVQSEDLAEYFCQQYYTYPLYTFGGGTKLEIKRADAAPTVSIFPPSTR
notes: murine IgG1; may hold only the variable regions
In experiment [1], B2 displayed an EC50 of 1 µg/mL. Besides, the “PBL Histamine Release (EC50)” value in experiment [2] is over 10 µg/mL.
